From US20240424129A1, “RECOMBINANT FUSION ANTIBODY, AND ANTIBODY-DRUG CONJUGATE AND USE THEREOF” (SUN YAT-SEN UNIVERSITY, priority 2021, published 2024)
Non-standard residues stand in square brackets, D forms with d. Residues, ends and D or L forms follow the SMILES beside them. Dolaproine = CO[C@@H]([C@@H]1CCCN1)[C@@H](C)C(=O)O; Dil = CC[C@H](C)[C@H](NC)[C@@H](CC(=O)O)OC; NMeV = CN[C@H](C(=O)O)C(C)C

Tests used:
Format in all cases: cell-based, human
[1] = tested on: SKBR3 cells; assay: In-vitro cytotoxicity, CCK8 cell viability; settings: SKBR3, 48 h; for maximal killing: CCK8; for IC50: CCK8, mean n=3
Method: (§1) In this example, human breast cancer cell line SKBR3 with high expression of HER2 and human ovarian cancer cell line SKOV3 with high expression of HER2 were chosen to evaluate the ability of the recombinant-fusion-antibody-drug conjugates to inhibit the growth of cancer cells. The recombinant-fusion-antibody-drug conjugates of different concentrations were added to a 96-well plate seeded with SKBR3 or SKOV3 cells. After treatment for 48 h, the viability of cells was calculated using a CCK8 kit.
Cell viability was measured using different concentrations of MMAF, VHH0-MMAF, or different recombinant-fusion-nanobody-drug conjugates (fused VHH1-MMAF to fused VHH26-MMAF). The half-maximal inhibitory concentration IC50 was calculated (FIGS. 14A-14C, and Table 7). FIGS. 14A, 14B and 14C respectively show the viability of SKBR3 cells treated with the recombinant-fusion-nanobody-drug conjugates, including fused VHH1-MMAF to fused VHH6-MMAF, fused VHH7-MMAF to fused VHH22-MMAF, and fused VHH23-MMAF to fused VHH26-MMAF. […] Data are expressed as the mean (n=3).
(§2) SKBR3 and SKOV3 cells were chosen to evaluate the ability of the recombinant-fusion-full-length-antibody-drug conjugates to inhibit the growth of cancer cells. […] The half-maximal inhibitory concentration IC50 was calculated.

[2] = tested on: SKOV3 cells; assay: In-vitro cytotoxicity, CCK8 cell viability; settings: SKOV3, 48 h, CCK8, mean n=3; Table 9
Method: as §1, §2

[3] = tested on: MDA-MB-231 cells; assay: In-vitro cytotoxicity, HER2-negative negative control; settings: MDA-MB-231, FIG. 15
Method: as §1
In addition, in this example, the HER2-negative MDA-MB-231 cells were chosen as a negative control to compare the ability of fused VHH7-MMAF, fused VHH8-MMAF, VHH0-MMAF, VHH0, and MMAF to inhibit the growth of cancer cells.

[4] = tested on: SKBR3 cells; assay: Internalization of TAMRA-labeled recombinant fusion antibodies by flow cytometry; settings: 2 μM, 6 h, acid wash, compared with non-fused VHH0
Method: The recombinant fusion antibody was labeled a fluorescent molecule and the internalization activity of the labeled antibody was evaluated by flow cytometry.
The procedure included the following steps: First, 5 mM tris (2-carboxyethyl) phosphine (TCEP; Thermo Fisher Scientific) was added to reduce the sulfhydryl group of VHH0 and fused VHH1-VHH26 respectively for approximately 30 min at room temperature, then TCEP was removed by buffer-exchanging with PBS containing 1 mM ethylenediaminetetraacetic acid (EDTA). Next, 2 eq of Maleimide-PEG3-TAMRA was added to the antibody solution and the resulting solution was incubated at 4° C. for 2 h. Lastly, the excess small molecules were removed by buffer-exchanging to obtain TAMRA-labeled VHH0 and fused VHH1-VHH26.
In this example, SKBR3, a human breast cancer cell line with a high expression level of HER2, was used as a model system. […] SKBR3 cells were incubated with TAMRA-labeled antibodies for 6 h, and subsequently washed with acid to remove bound antibodies on the cell membrane, and the fluorescence intensity was analyzed by flow cytometry.

[5] = tested on: SKBR3 cells; assay: Colocalization of recombinant fusion antibodies with lysosomes by confocal laser scanning microscopy; settings: TAMRA-labeled, 4 h, SKBR3, LysoTracker Green; compared with non-fused VHH0
Source text: Confocal laser scanning microscope (CLSM) was used to analyze the colocalization of the recombinant fusion antibodies with the lysosome. The antibody-drug conjugate would be transported and processed in the endocytotic pathway as follows: once the antibody-drug conjugate binds to the cell-surface tumor antigen, it is internalized into endosomes, which subsequently mature and fuse with lysosomes. In the lysosomes, the acidic environment and specific proteases (e.g., cathepsin B) degrade the ADC, thus leading to the release of the drug. The free drug traverses the lysosomal membrane, reaches the cytosol and binds to its target, such as microtubule or DNA, thus ultimately triggering cell death. Therefore, the efficacy of an antibody-drug conjugate relies on its internalization and lysosomal trafficking.
In this example, SKBR3 cells were treated with TAMRA-labeled antibodies, including VHH0, fused VHH1-VHH26, mAb0, or fused mAb1-mAb3, for 4 h. The nuclei of SKBR cells were stained by Hoechst 33342 and the lysosomes of cells were stained by LysoTracker Green. The lysosome-trafficking activity of VHH0, fused VHH1-VHH26, mAb0, and fused mAb1-mAb3 was evaluated by confocal laser scanning microscopy. All images were presented under identical conditions. For quantitative analysis, the same threshold value was set for all images.

## CC[C@H](C)[C@@H]([C@@H](CC(=O)N1CCC[C@H]1[C@H](OC)[C@@H](C)C(=O)N[C@@H](Cc1ccccc1)C(=O)O)OC)N(C)C(=O)[C@@H](NC(=O)[C@@H](NC)C(C)C)C(C)C [MMAF, monomethyl auristatin F, reference compound] (H-[NMeV]V[Dil][Dolaproine]F-OH)
[1]
  maximal killing: about 50%
[1]; Table 7
  IC50: 53.2 nM
[1]; Table 8
  IC50: 37.4 nM
[2]
  IC50: 37.4 nM
[3]
  cytotoxicity in HER2-negative cells: significant cell death

B1: Fused VHH7: anti-HER2 nanobody fused with lysosome-targeting peptide P7, SEQ ID NO: 39 (protein)
chain: EVQLVESGGGLVQAGGSLRLSCAASGITFSINTMGWYRQAPGKQRELVALISSIGDTYYADSVKGRFTISRDNAKNTVYLQMNCLKPEDTAVYYCKRFRTAAQGTDYWGQGTQVTVSSHHHHHHLPETGGGSDEDLLHI
[4]
  internalization ability of nanobodies (mean cell fluorescence): no significant difference in the internalization ability between fused VHH7 and fused VHH8
[5]
  colocalization of nanobodies with lysosomes / lysosomal trafficking: No significant difference in lysosomal trafficking

B2: Fused VHH7-MMAF (conjugate)
VHH: B1 chain
[1]; Table 7
  IC50: 0.336 nM
[3]
  cytotoxicity in HER2-negative cells: none of the substances are cytotoxic

B3: VHH0-MMAF (conjugate)
VHH: EVQLVESGGGLVQAGGSLRLSCAASGITFSINTMGWYRQAPGKQRELVALISSIGDTYYADSVKGRFTISRDNAKNTVYLQMNCLKPEDTAVYYCKRFRTAAQGTDYWGQGTQVTVSSHHHHHH
[1]
  maximal killing: about 50%
[1]; Table 7
  IC50: 1.57 nM
[3]
  cytotoxicity in HER2-negative cells: none of the substances are cytotoxic

B4: Fused VHH8: anti-HER2 nanobody fused with P7, His6 tag after the peptide, SEQ ID NO: 40 (protein)
VHH: EVQLVESGGGLVQAGGSLRLSCAASGITFSINTMGWYRQAPGKQRELVALISSIGDTYYADSVKGRFTISRDNAKNTVYLQMNCLKPEDTAVYYCKRFRTAAQGTDYWGQGTQVTVSSLPETGGGSDEDLLHIHHHHHH
modifications: linker, P7 peptide, His6 tag
[4]
  internalization ability of nanobodies (mean cell fluorescence): no significant difference in the internalization ability between fused VHH7 and fused VHH8
[5]
  colocalization of nanobodies with lysosomes / lysosomal trafficking: No significant difference in lysosomal trafficking

B5: Fused VHH8-MMAF (conjugate)
VHH: B4 VHH
[1]; Table 7
  IC50: 0.319 nM
[3]
  cytotoxicity in HER2-negative cells: none of the substances are cytotoxic
